Assay results published in article doi:10.1101/2020.12.02.407882.
One block for each substance: values may come before it.

Key:
[1] = molecular target: 1G4 TCR carrying βA291 (TCRαβ with HA-tagged β Y291A); test: co-IP
[2] = molecular target: QM-α TCR (1G4 variant with mutations in αCDR2, βCDR2 and βCDR3; TCRαβ with HA-tagged β); test: pull-down
[3] = molecular target: 1G4 TCR, wild type (TCRαβ with HA-tagged β); test: co-IP

reduction of recovery (δ/βT) against 1G4-WT [1]: 10%
Substance: CD3δ, endogenous in J76 Jurkat cells (from UniProt P04234 22-171) (natural protein)

ε/βT ratio against 1G4-WT (ratio, 1G4-WT = 1) [1]: 0.5
Substance: CD3ε, endogenous in J76 Jurkat cells (from UniProt P07766 23-207) (natural protein)

ζ/β2 ratio against ζWT (ratio, ζWT = 1) [3]: 0.05
Substance: CD3ζ carrying ζA38 (I38A), expressed in J76-1G4WT-ζKO (from UniProt P20963-1 22-164) (natural protein)

Continued, substance first:

Substance: CD3γ, endogenous in J76 Jurkat cells (from UniProt P09693 23-182) (natural protein)
reduction of recovery (γ/βT) against 1G4-WT [1]: 40%

Substance: CD3ζ (ζζ dimer), endogenous in J76 Jurkat cells (from UniProt P20963-1 22-164) (natural protein)
ζ/β2 ratio against 1G4-WT (ratio, 1G4-WT = 1) [1]: 0.2
reduction of ζ/β2 ratio, (9V-A2)4-His-bound against unliganded QM-α [2]: 40%

Substance: CD3ζ carrying ζA41 (I41A), expressed in J76-1G4WT-ζKO (from UniProt P20963-1 22-164) (natural protein)
ζ/β2 ratio against ζWT (ratio, ζWT = 1) [3]: 0.25
